What was measured:
[1] = target: T1, FcγRI (UniProt P12314 16-288, limits assumed); experiment: SPR steady state affinity; reference is the IgG1 Wt affinity for FcγRI
T1 construct: Captured from a 100 nM solution on immobilized anti-His antibody; also called FcγRI receptor; FcγRIa
Protocol: (§1) Biacore T100 system (GE Healthcare) with high immobilized anti-His capturing antibody (GE Healthcare). Immobilization of the anti-His capturing antibody was performed on a CMS chip using the standard amine coupling kit (GE Healthcare) at pH 4.5 10 mM sodium acetate and 10 μg/ml anti-His solution. The immobilization level of anti-His reached more than 10.000 RU. FcγRI was applied in a 100 nM solution, in the running buffer HBS-P+ and captured with a pulse of 60 sec at a flow rate of 30 μl per min. […] The dissociation phase was monitored for 180 sec. The surface was regenerated by a 60 sec washing step with a 10 mM Glycine pH 1.5 at a flow rate of 30 μl per min. The stabilization period took 60 sec. The Biacore T100 evaluation software was used for data analysis.
(§2) For the steady state affinity concentration determination the response values from the end of association were used to plot the response against the concentration. The Biacore T100 evaluation software was used to calculate the affinity of samples for immobilized FcγRI receptor from the plot.

[2] = target: T1, FcγRI; experiment: SPR steady state affinity fit, FcγRI captured on anti-His antibody; beside it offset (RU) 26.88 and Chi² (RU²) 7.76
Protocol: as §1, §2

[3] = target: T2, FcγRIIIA (UniProt P08637 17-208, limits assumed); experiment: SPR (Biacore T100), FcγRIIIA with His tag captured on immobilised anti-His antibody, antibody injected (Example 9)
T2 construct: Captured from a 200 nM solution on immobilized anti-His antibody; also called CD16
Protocol: The SPR interaction analysis of captured FcγRIIIA and IgG1 Fc variants was performed on a Biacore T100 system (GE Healthcare) with high immobilized anti-His capturing antibody (GE Healthcare). Immobilization of the anti-His capturing antibody was performed on a CMS chip using the standard amine coupling kit (GE Healthcare) at pH 4.5 10 mM sodium acetate and 10 μg/ml anti-His solution. The immobilization level of anti-His reached more than 10.000 RU. FcγRIIIA was applied in a 200 nM solution, in the running buffer HBS-P+ and captured with a pulse of 60 sec at a flow rate of 30 μl per min. […] The dissociation phase was monitored for 180 sec. The surface was regenerated by a 60 sec washing step with a 10 mM Glycine pH 1.5 at a flow rate of 30 μl per min. The stabilization period took 60 sec. The Biacore T100 evaluation software was used for data analysis.

[4] = target: T1, FcγRI; experiment: SPR steady state affinity (Biacore T100), FcγRI captured via anti-His antibody, antibody 1000-62.5 nM
Protocol: as §1, §2

T1 sequence (P12314 16-288 limits assumed): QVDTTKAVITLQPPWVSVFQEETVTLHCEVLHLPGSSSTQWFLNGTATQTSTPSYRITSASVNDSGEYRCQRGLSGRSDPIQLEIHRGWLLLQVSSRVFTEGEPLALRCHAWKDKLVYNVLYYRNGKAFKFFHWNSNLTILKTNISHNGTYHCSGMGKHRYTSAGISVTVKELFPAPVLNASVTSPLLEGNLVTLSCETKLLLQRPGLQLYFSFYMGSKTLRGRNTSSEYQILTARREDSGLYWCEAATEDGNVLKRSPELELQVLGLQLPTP
T2 sequence (P08637 17-208 limits assumed): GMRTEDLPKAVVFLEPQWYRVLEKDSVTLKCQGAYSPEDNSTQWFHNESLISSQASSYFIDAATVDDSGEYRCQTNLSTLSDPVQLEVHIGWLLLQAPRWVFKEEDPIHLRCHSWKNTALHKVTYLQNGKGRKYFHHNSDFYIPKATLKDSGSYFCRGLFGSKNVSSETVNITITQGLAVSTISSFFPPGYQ

B1: obinutuzumab N297D (antibody)
heavy: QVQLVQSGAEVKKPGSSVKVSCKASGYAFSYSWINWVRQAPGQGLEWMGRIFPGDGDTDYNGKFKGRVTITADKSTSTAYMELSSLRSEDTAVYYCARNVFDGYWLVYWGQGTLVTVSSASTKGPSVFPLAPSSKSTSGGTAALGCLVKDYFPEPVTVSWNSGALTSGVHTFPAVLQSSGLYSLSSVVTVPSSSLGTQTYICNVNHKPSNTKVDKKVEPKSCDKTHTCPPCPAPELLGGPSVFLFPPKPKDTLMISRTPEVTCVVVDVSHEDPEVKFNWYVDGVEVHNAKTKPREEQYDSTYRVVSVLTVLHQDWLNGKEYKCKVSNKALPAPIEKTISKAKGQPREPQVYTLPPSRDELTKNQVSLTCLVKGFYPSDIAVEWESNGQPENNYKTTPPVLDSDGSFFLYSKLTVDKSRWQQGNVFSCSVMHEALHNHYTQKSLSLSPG
VL: DIVMTQTPLSLPVTPGEPASISCRSSKSLLHSNGITYLYWYLQKPGQSPQLLIYQMSNLVSGVPDRFSGSGSGTDFTLKISRVEAEDVGVYYCAQNLELPYTFGGGTKVEIK
modifications: N297D removes the Fc N-glycosylation site, so the antibody is aglycosylated ('aglyco').
notes: IgG1 expressed in HEK-EBNA or HEK293 and purified by protein A and size exclusion chromatography; also called GA101 N297D; GA101 aglyco (N297D)
**Q.** Which results are given for B1?
**A.** fold below the IgG1 Wt affinity [1]: ~50 fold; Kd [2]: 234 nM; binding result [3]: no binding (tested: 1000 nM); Kd [4]: 234 nM

From patent US20190092872A1 (Hoffmann-La Roche, published 2019)
